In patent publication US20210130870, “VISUAL AND MODULAR DETECTION OF NUCLEIC ACIDS WITH ENZYME-ASSISTED NANOTECHNOLOGY” (National University of Singapore, published 2021):

Molecular target: Taq DNA polymerase (UniProt P19821 P19821:1-832)
Assay: BLI; 50 mM NaCl, 1.5 mM MgCl2, 50 mM Tris-HCl pH 8.5; immobilized biotin-aptamer; sensorgram only
Settings: tags: GoTaq (Promega); label: biotin on aptamer for BLI; 20 bp duplex with 20 nt inverter overhang, conserved region CAATGTACAGTATTG

Taq DNA polymerase, sequence (P19821 whole entry, one chain of several): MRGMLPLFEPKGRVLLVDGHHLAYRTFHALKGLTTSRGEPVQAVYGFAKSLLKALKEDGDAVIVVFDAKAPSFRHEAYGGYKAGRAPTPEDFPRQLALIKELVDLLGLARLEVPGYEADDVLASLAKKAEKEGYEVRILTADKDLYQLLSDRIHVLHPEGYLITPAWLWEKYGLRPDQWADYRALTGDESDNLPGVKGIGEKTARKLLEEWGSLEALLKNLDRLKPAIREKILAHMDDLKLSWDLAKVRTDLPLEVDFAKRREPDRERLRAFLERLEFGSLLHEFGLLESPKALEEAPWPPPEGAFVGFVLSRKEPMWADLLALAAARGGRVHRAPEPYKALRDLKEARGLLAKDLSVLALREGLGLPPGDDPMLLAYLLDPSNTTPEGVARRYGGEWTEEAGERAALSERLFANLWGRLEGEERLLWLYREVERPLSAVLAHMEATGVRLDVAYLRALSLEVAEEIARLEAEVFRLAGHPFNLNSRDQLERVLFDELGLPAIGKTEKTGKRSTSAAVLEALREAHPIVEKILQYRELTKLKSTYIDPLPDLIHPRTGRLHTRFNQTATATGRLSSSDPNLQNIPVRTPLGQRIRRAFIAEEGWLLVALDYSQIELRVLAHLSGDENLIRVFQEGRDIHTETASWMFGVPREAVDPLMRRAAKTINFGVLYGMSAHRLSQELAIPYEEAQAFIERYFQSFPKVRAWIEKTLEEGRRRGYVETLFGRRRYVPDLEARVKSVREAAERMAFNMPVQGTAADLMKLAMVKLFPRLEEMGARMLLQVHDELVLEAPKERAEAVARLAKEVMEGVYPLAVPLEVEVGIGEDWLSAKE

B1: HPV16 L2 aptamer/inverter recognition nanostructure (structured_DNA)
DNA 1: AAGTATCTGTAATAAAGTCACAATGTACAGTATTG
DNA 2: TGACTTTATTACAGATACTTCTACAACCCCGGTACCATCT
binding result: binds
